The target of this assay is T1, soluble recombinant human FGFR3c human-IgG chimeric protein (human, UniProt P22607 23-375).
T1 sequence (looked up): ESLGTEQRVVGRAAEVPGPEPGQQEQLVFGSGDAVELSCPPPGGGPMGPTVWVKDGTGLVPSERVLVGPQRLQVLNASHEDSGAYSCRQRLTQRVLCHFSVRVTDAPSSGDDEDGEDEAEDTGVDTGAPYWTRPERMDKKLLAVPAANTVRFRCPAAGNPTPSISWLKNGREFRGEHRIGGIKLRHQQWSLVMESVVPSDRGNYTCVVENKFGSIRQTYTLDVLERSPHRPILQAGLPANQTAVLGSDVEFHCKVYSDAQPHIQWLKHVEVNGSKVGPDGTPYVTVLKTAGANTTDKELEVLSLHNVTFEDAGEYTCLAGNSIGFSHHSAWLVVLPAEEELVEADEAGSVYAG
Nature of the assay: ligand and carbohydrate engagement.

B1: recombinant human FGF18 (ligand, UniProt O76093 28-207, looked up)
chain: EENVDFRIHVENQTRARDDVSRKQLRLYQLYSRTSGKHIQVLGRRISARGEDGDKYAQLLVETDTFGSQVRIKGKETEFYLCMNRKGKLVGKPDGTSKECVFIEKVLENNYTALMSAKYSGWYVGFTKKGRPRKGPKTRENQQDVHFMKRYPKGQPELQKPFKYTTVTKRSRRIRPTHPA
Regarding B1, the binding result was “binds”.

Values taken from PMC2900151 (Biochemistry, 2010).
